Experimental data taken from the Human Domainome abundance scans (Beltran et al. 2025).
± gives the uncertainty stated by the source.

B1: POU domain, class 2, transcription factor 1, residues 285 to 354; numbered along this chain, P14859 (parent)
chain: LEELEQFAKTFKQRRIKLGFTQGDVGLAMGKLYGNDFSQTTISRFEALNLSFKNMCKLKPLLEKWLNDAE
B2: Serine/threonine-protein kinase A-Raf, residues 21 to 89; numbered along this chain, P10398 (parent)
chain: VKVYLPNKQRTVVTVRDGMSVYDSLDKALKVRGLNQDCCVVYRLIKGRKTVTAWDTAIAPLDGEELIVE

Variants of: B1
Experiment: abundance fitness (aPCA) (normalised: wild type 0, dead -1); higher = more abundant; growth selection in yeast, the domain comes from the species named
Conditions: Homo sapiens

Q: For LEELEQFAKTFKQRRIKLGFTQGDVGLAMGKLYGNDFSQTTISRFEALNLSFKNMCKLKPLLEKWLNDAW [E70W], which abundance fitness is on record?
A: 0.071 ± 0.15

Variants of: B2
Experiment: as above
Conditions: Homo sapiens

Q: For VKCYLPNKQRTVVTVRDGMSVYDSLDKALKVRGLNQDCCVVYRLIKGRKTVTAWDTAIAPLDGEELIVE [V3C], which abundance fitness is on record?
A: -0.274 ± 0.12

Q: For VKPYLPNKQRTVVTVRDGMSVYDSLDKALKVRGLNQDCCVVYRLIKGRKTVTAWDTAIAPLDGEELIVE [V3P], which abundance fitness is on record?
A: -1.01 ± 0.13

Q: Which abundance fitness does the source give for VKKYLPNKQRTVVTVRDGMSVYDSLDKALKVRGLNQDCCVVYRLIKGRKTVTAWDTAIAPLDGEELIVE [V3K] here?
A: -0.622 ± 0.11

Q: For VKLYLPNKQRTVVTVRDGMSVYDSLDKALKVRGLNQDCCVVYRLIKGRKTVTAWDTAIAPLDGEELIVE [V3L], which abundance fitness is on record?
A: -0.191 ± 0.037

Q: With VKFYLPNKQRTVVTVRDGMSVYDSLDKALKVRGLNQDCCVVYRLIKGRKTVTAWDTAIAPLDGEELIVE [V3F] as the variant, how does the abundance fitness read?
A: -0.552 ± 0.092

Q: Which abundance fitness does the source give for VKMYLPNKQRTVVTVRDGMSVYDSLDKALKVRGLNQDCCVVYRLIKGRKTVTAWDTAIAPLDGEELIVE [V3M] here?
A: -0.814 ± 0.18

Q: Which abundance fitness does the source give for VKQYLPNKQRTVVTVRDGMSVYDSLDKALKVRGLNQDCCVVYRLIKGRKTVTAWDTAIAPLDGEELIVE [V3Q] here?
A: -1.02 ± 0.23

Q: Which abundance fitness does the source give for VKGYLPNKQRTVVTVRDGMSVYDSLDKALKVRGLNQDCCVVYRLIKGRKTVTAWDTAIAPLDGEELIVE [V3G] here?
A: -0.966 ± 0.18

Q: With VKIYLPNKQRTVVTVRDGMSVYDSLDKALKVRGLNQDCCVVYRLIKGRKTVTAWDTAIAPLDGEELIVE [V3I] as the variant, how does the abundance fitness read?
A: -0.298 ± 0.16

Q: Which abundance fitness does the source give for VKAYLPNKQRTVVTVRDGMSVYDSLDKALKVRGLNQDCCVVYRLIKGRKTVTAWDTAIAPLDGEELIVE [V3A] here?
A: -0.672 ± 0.086

Q: With VKDYLPNKQRTVVTVRDGMSVYDSLDKALKVRGLNQDCCVVYRLIKGRKTVTAWDTAIAPLDGEELIVE [V3D] as the variant, how does the abundance fitness read?
A: -0.794 ± 0.2

Q: With VKEYLPNKQRTVVTVRDGMSVYDSLDKALKVRGLNQDCCVVYRLIKGRKTVTAWDTAIAPLDGEELIVE [V3E] as the variant, how does the abundance fitness read?
A: -0.745 ± 0.12

Q: For AKVYLPNKQRTVVTVRDGMSVYDSLDKALKVRGLNQDCCVVYRLIKGRKTVTAWDTAIAPLDGEELIVE [V1A], which abundance fitness is on record?
A: -0.684 ± 0.21

Q: Which abundance fitness does the source give for FKVYLPNKQRTVVTVRDGMSVYDSLDKALKVRGLNQDCCVVYRLIKGRKTVTAWDTAIAPLDGEELIVE [V1F] here?
A: -0.358 ± 0.21

Q: With GKVYLPNKQRTVVTVRDGMSVYDSLDKALKVRGLNQDCCVVYRLIKGRKTVTAWDTAIAPLDGEELIVE [V1G] as the variant, how does the abundance fitness read?
A: -0.744 ± 0.17

Q: For RKVYLPNKQRTVVTVRDGMSVYDSLDKALKVRGLNQDCCVVYRLIKGRKTVTAWDTAIAPLDGEELIVE [V1R], which abundance fitness is on record?
A: -0.487 ± 0.48

Q: For LKVYLPNKQRTVVTVRDGMSVYDSLDKALKVRGLNQDCCVVYRLIKGRKTVTAWDTAIAPLDGEELIVE [V1L], which abundance fitness is on record?
A: -0.076 ± 0.13

Q: With CKVYLPNKQRTVVTVRDGMSVYDSLDKALKVRGLNQDCCVVYRLIKGRKTVTAWDTAIAPLDGEELIVE [V1C] as the variant, how does the abundance fitness read?
A: -0.184 ± 0.28

Q: With EKVYLPNKQRTVVTVRDGMSVYDSLDKALKVRGLNQDCCVVYRLIKGRKTVTAWDTAIAPLDGEELIVE [V1E] as the variant, how does the abundance fitness read?
A: -0.833 ± 0.22

Q: Which abundance fitness does the source give for SKVYLPNKQRTVVTVRDGMSVYDSLDKALKVRGLNQDCCVVYRLIKGRKTVTAWDTAIAPLDGEELIVE [V1S] here?
A: -0.528 ± 0.25

Q: For IKVYLPNKQRTVVTVRDGMSVYDSLDKALKVRGLNQDCCVVYRLIKGRKTVTAWDTAIAPLDGEELIVE [V1I], which abundance fitness is on record?
A: -0.096 ± 0.18

Q: Which abundance fitness does the source give for MKVYLPNKQRTVVTVRDGMSVYDSLDKALKVRGLNQDCCVVYRLIKGRKTVTAWDTAIAPLDGEELIVE [V1M] here?
A: -0.141 ± 0.1

Q: With VNVYLPNKQRTVVTVRDGMSVYDSLDKALKVRGLNQDCCVVYRLIKGRKTVTAWDTAIAPLDGEELIVE [K2N] as the variant, how does the abundance fitness read?
A: -0.139 ± 0.17

Q: Which abundance fitness does the source give for VPVYLPNKQRTVVTVRDGMSVYDSLDKALKVRGLNQDCCVVYRLIKGRKTVTAWDTAIAPLDGEELIVE [K2P] here?
A: -0.528 ± 0.12

Q: With VLVYLPNKQRTVVTVRDGMSVYDSLDKALKVRGLNQDCCVVYRLIKGRKTVTAWDTAIAPLDGEELIVE [K2L] as the variant, how does the abundance fitness read?
A: -0.349 ± 0.09

Q: For VFVYLPNKQRTVVTVRDGMSVYDSLDKALKVRGLNQDCCVVYRLIKGRKTVTAWDTAIAPLDGEELIVE [K2F], which abundance fitness is on record?
A: -0.466 ± 0.33

Q: With VRVYLPNKQRTVVTVRDGMSVYDSLDKALKVRGLNQDCCVVYRLIKGRKTVTAWDTAIAPLDGEELIVE [K2R] as the variant, how does the abundance fitness read?
A: 0.038 ± 0.057

Q: For VEVYLPNKQRTVVTVRDGMSVYDSLDKALKVRGLNQDCCVVYRLIKGRKTVTAWDTAIAPLDGEELIVE [K2E], which abundance fitness is on record?
A: -0.379 ± 0.06

Q: Which abundance fitness does the source give for VVVYLPNKQRTVVTVRDGMSVYDSLDKALKVRGLNQDCCVVYRLIKGRKTVTAWDTAIAPLDGEELIVE [K2V] here?
A: -0.118 ± 0.067

Q: With VWVYLPNKQRTVVTVRDGMSVYDSLDKALKVRGLNQDCCVVYRLIKGRKTVTAWDTAIAPLDGEELIVE [K2W] as the variant, how does the abundance fitness read?
A: -0.314 ± 0.15

Q: For VQVYLPNKQRTVVTVRDGMSVYDSLDKALKVRGLNQDCCVVYRLIKGRKTVTAWDTAIAPLDGEELIVE [K2Q], which abundance fitness is on record?
A: -0.32 ± 0.062

Q: For VAVYLPNKQRTVVTVRDGMSVYDSLDKALKVRGLNQDCCVVYRLIKGRKTVTAWDTAIAPLDGEELIVE [K2A], which abundance fitness is on record?
A: -0.242 ± 0.082

Q: For VSVYLPNKQRTVVTVRDGMSVYDSLDKALKVRGLNQDCCVVYRLIKGRKTVTAWDTAIAPLDGEELIVE [K2S], which abundance fitness is on record?
A: -0.172 ± 0.091

Q: With VDVYLPNKQRTVVTVRDGMSVYDSLDKALKVRGLNQDCCVVYRLIKGRKTVTAWDTAIAPLDGEELIVE [K2D] as the variant, how does the abundance fitness read?
A: -0.416 ± 0.26

Q: Which abundance fitness does the source give for VTVYLPNKQRTVVTVRDGMSVYDSLDKALKVRGLNQDCCVVYRLIKGRKTVTAWDTAIAPLDGEELIVE [K2T] here?
A: 0.057 ± 0.065

Q: For VYVYLPNKQRTVVTVRDGMSVYDSLDKALKVRGLNQDCCVVYRLIKGRKTVTAWDTAIAPLDGEELIVE [K2Y], which abundance fitness is on record?
A: -0.313 ± 0.19

Q: For VMVYLPNKQRTVVTVRDGMSVYDSLDKALKVRGLNQDCCVVYRLIKGRKTVTAWDTAIAPLDGEELIVE [K2M], which abundance fitness is on record?
A: -0.217 ± 0.11

Q: For VGVYLPNKQRTVVTVRDGMSVYDSLDKALKVRGLNQDCCVVYRLIKGRKTVTAWDTAIAPLDGEELIVE [K2G], which abundance fitness is on record?
A: -0.37 ± 0.079
